Source: article PMC8336894 (Genes & Development, 2021)

Biological target: T1, CRY1 (human (endogenous in HEK293), UniProt Q16526 1-586)
T1 sequence (looked up): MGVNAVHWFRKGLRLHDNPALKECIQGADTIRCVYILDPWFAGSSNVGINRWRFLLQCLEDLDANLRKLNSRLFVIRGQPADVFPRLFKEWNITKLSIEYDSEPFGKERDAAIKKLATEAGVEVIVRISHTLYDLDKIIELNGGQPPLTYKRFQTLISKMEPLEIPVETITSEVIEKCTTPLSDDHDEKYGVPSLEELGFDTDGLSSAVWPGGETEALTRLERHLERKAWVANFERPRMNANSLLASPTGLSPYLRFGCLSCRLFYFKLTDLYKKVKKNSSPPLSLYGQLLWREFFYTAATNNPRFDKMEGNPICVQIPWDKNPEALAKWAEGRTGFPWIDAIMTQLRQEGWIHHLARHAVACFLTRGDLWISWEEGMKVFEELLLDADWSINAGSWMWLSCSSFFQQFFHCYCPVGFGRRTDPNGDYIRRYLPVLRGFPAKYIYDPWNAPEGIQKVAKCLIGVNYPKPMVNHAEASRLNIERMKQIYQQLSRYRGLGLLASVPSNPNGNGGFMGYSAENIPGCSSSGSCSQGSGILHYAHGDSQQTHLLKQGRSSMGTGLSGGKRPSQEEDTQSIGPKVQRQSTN
Assay: co-IP

B1: BMAL1-luciferase fusion protein (natural protein)
chain: not shown
For B1, the “fold luciferase activity in the precipitate over the IgG control” value was roughly 3 fold.
